The target of one experiment is T1, rat IL-1β (rat, UniProt Q63264 117-268).
T1 sequence (looked up): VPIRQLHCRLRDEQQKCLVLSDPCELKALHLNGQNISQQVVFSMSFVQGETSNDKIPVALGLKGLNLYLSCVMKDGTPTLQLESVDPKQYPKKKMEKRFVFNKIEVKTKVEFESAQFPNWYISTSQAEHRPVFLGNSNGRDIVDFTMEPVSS
Nature of the experiment: BIAcore, antibody captured on anti-IgG chip, ligand flowed. How it is done:
(§1) Affinities and specificities of both Hu007 and Mu007 were determined using BlAcore measurements. BIAcore™ is an automated biosensor system that measures molecular interactions. (Karlsson, et al. (1991) J. Immunol. Methods 145: 229-240). In these experiments antibody was immobilized at low density on a BIAcore™ chip. Ethyl-dimethylaminopropyl-carbodiimide (EDC) was used to couple reactive amino groups to purified goat anti-human IgG or goat anti-rabbit IgG to a flow cell of a carboxy-methyl (CM5) BIAcore™ sensor chip. Goat IgG was diluted in sodium acetate buffer, pH 4.0, and immobilized on a flow cell of a CM5 chip using EDC to yield 1000 response units. Unreacted sites were blocked with ehanolamine. A flow rate of 60 μL/min was used. Multiple binding/elution cycles were performed by injection a 100 μL solution of 15 μg/mL Mu007 or Hu007 followed by human IL-1β, mouse IL-1β, rat IL-1β, cynomolgus monkey IL-1β, porcine IL-1β, human IL-1 receptor antagonist, and human IL-1α at decreasing concentrations for each cycle (e.g., 1500, 750, 375, 188, 94, 47, 23.5, 12, and 0 picomolar). Elution was performed with glycine-HCl, pH 1.5. BIAevaluation™ was used to analyze the kinetic data. Table 2 depicts the affinities of Hu007 and Mu007 for human and cynomolgus IL-1β. […] Cynomolgus and porcine IL-1β had 100% binding to Hu007 relative to human IL-1β.
In general terms: Surface plasmon resonance follows binding to a sensor surface in real time, without labels.

In experiment [1] the target is T2, human IL-1β (human, UniProt P01584 117-269).
T2 construct: mature; also called mature human IL-1β; Interleukin-1β
Nature of the experiment: competition ELISA on coated human IL-1β against biotinylated Mu007, average. How it is done:
(§2) Wells of 96-well ELISA plates (Nunc-lmmuno plate, Cat # 439454, NalgeNunc) were coated with 100 μL of 0.5. μg/mL of human IL-1β in 0.2M sodium carbonate-bicarbonate buffer (pH 9.4) overnight at 4° C., washed with Wash Buffer, blocked with Superblock blocking buffer for 30 min at 37° C., and washed again with Wash Buffer. A mixture of biotinylated Mu007 (0.16 μg/mL final concentration) and competitor antibody (Mu007, Hu007, or Hu007 analogs starting at 100 μg/mL final concentration and serial 3-fold dilutions) in ELISA Buffer were added in triplicate in a final volume of 100 μL per well. As a no-competitor control, 100 μL of 0.16 μg/mL biotinylated Mu007 was used. As a background control, 100 gLL of ELISA Buffer was used. ELISA plates were incubated at 37° C. for 2 hr. After washing the wells with Washing Buffer, 100 μL of 1 μg/mL HRP-conjugated streptavidin (Jackson ImmunoResearch) was added to each well. ELISA plates were incubated at room temperature for 30 min and washed with Washing Buffer. For color development, 100 μL/well of ABTS substrate was added. Color development was stopped by adding 100 μL/well of 2% oxalic acid. Absorbance was read at 415 nm.
Mu007, Hu007 and Hu007 analogs competed with biotinylated Mu007 in a concentration-dependent manner. […]

A further experiment deals with T3, cynomolgus monkey IL-1β (cynomolgus monkey, UniProt P79182 117-268).
T3 construct: also called Cynomolgus IL-1β
T3 sequence (looked up): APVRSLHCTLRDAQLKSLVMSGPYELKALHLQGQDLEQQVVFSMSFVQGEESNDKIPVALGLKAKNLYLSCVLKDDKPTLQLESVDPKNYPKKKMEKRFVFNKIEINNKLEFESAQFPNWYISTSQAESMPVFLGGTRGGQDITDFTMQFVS
As to the kind of experiment: BIAcore, antibody captured on anti-IgG CM5 chip, IL-1β flowed. On the procedure:
as §1

Experiment [2] has as its target T2, human IL-1β. Described as above. How it is done:
as §1

For another experiment, the target named is T4, porcine IL-1β (porcine, UniProt P26889 115-267).
T4 sequence (looked up): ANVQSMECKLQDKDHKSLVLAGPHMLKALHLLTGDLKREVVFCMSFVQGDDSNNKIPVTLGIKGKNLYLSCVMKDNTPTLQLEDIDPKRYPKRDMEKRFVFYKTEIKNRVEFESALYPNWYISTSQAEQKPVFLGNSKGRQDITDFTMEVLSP
Described as above. On the procedure: as §1

In experiment [3] the target is T2, human IL-1β. As to the kind of experiment: competition ELISA on coated human IL-1β against biotinylated Mu007, Exp. B. How it is done:
as §2
(§3) Mu007, Hu007 and Hu007 analogs competed with biotinylated Mu007 in a concentration-dependent manner. The IC₅₀ values of Mu007 and Hu007 in three independent ELISA competition experiments, obtained using the computer software Prism (GraphPad Software Inc., San Diego, Calif.) are shown in Table 1. The relative binding of Hu007 was on average 89% of Mu007.
A general note: An ELISA detects its analyte on a solid surface through an enzyme-linked reagent.

Experiment [4] has as its target T2, human IL-1β. Nature of the experiment: BIAcore, antibody captured on protein A CM5 chip, human IL-1β flowed. How it is done: Affinities and specificities of several Hu007 analogs were determined using BIAcore measurements. BIAcore™ is an automated biosensor system that measures molecular interactions. (Karlsson, et al. (1991) J. Immunol. Methods 145: 229-240). In these experiments antibody was immobilized at low density on a BIAcore™ chip. Ethyl-dimethylaminopropyl-carbodiimide (EDC) was used to couple reactive amino groups to protein A to a flow cell of a carboxy-methyl (CM5) BIAcore™ sensor chip. Protein A was diluted in sodium acetate buffer, pH 4.5, and immobilized on a flow cell of a CM5 chip using EDC to yield approximately 1000 response units. Unreacted sites were blocked with ethanolamine. A flow rate of 60 μl/min was used. Multiple binding/elution cycles were performed by injection of 10 μl of a 5 μg/mL Hu007 solution, and heavy chain CDR2 analogs N55D, N55S, N55Q, G56A, and G56V, followed by human IL-1β at decreasing concentrations for each cycle (e.g. 1500, 750, 375, 188, and […]). Elution was performed with glycine-HCl, pH 1.5. BIAevaluation™ was used to analyze the kinetic data. Table 5 depicts the affinities of Hu007 and the various Hu007 analogs for human IL-1β.

The target in experiment [5] is T2, human IL-1β. Nature of the experiment: competition ELISA on coated human IL-1β against biotinylated Mu007, Exp. A. On the procedure:
as §2, §3

B1: humanized antibody Hu007 (antibody, human IgG1, kappa, V domains shown)
VH: QVQLVQSGAEVKKPGASVKVSCKVSGYTFSRYWIEWVRQAPGKGLEWIGEILPGNGNINYNEKFKGKATITADTSTDTAYMELSSLRSEDTAVYYCSTIYYDYDQGFTYWGQGTLVTVSS
VL: DIQMTQSPSSLSASVGDRVTITCKASQDIDRYLSWFQQKPGKAPKSLIYRVKRLVDGVPSRFSGSASGTDYTLTISSLQPEDFATYYCLQYDEFPYTFGQGTKLEIKR
notes: Human IgG1 kappa; also called WT; Hu007 WT
The term Kd denotes the concentration at which binding is half-saturated. The term IC50 denotes the point on the concentration scale where inhibition reaches its midpoint. Take B1: the binding result with rat IL-1β is reported as “no binding”. For the same molecule, the entries for the “Hu007/Mu007 × 100 (IC50 ratio, relative binding against Mu007)” value with human IL-1β [1], in the experiment with human IL-1β [3] and in the experiment with human IL-1β [5] were 89%, 88% and 98%, respectively. The Kd was 10.4 pM with cynomolgus monkey IL-1β, 10.2 pM with human IL-1β [2] and 10.5 pM with human IL-1β [4]. Further, the “binding relative to human IL-1β” value with cynomolgus monkey IL-1β and with porcine IL-1β was 100% throughout. Moreover, the half-inhibitory concentration (IC50) in the experiment with human IL-1β [3] is 0.35 µg/mL; with human IL-1β [5], 0.39 µg/mL.

(Values after patent US20050070692A1 (published 2005).)
